Measured values published in patent US20240409645A1 (DUALYX, published 2024).

T1: human IL-2 receptor (IL-2Rα/IL-2Rβ/γc) (human, UniProt P01589 22-272; P14784 27-551; P31785 23-369)
T1 sequence 1: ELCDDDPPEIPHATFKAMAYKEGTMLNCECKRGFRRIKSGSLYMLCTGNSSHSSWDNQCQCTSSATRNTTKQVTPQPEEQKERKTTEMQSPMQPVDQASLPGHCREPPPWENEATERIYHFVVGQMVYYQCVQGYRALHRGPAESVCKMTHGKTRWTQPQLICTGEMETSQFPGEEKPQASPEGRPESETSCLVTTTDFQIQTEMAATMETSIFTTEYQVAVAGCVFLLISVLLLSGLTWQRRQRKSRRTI
T1 sequence 2: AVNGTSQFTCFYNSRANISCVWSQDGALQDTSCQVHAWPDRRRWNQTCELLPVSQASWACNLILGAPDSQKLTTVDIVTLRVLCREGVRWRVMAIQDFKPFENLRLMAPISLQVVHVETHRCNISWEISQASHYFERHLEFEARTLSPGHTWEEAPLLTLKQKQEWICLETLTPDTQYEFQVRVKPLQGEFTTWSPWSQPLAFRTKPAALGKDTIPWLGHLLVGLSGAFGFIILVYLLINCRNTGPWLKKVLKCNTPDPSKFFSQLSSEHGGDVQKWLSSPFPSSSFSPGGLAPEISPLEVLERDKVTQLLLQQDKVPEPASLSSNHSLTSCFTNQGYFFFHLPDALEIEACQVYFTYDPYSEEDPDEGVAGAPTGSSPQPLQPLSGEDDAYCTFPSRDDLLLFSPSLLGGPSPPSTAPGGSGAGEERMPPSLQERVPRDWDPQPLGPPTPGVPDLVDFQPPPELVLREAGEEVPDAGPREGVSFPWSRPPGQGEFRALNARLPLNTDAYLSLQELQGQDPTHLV
T1 sequence 3: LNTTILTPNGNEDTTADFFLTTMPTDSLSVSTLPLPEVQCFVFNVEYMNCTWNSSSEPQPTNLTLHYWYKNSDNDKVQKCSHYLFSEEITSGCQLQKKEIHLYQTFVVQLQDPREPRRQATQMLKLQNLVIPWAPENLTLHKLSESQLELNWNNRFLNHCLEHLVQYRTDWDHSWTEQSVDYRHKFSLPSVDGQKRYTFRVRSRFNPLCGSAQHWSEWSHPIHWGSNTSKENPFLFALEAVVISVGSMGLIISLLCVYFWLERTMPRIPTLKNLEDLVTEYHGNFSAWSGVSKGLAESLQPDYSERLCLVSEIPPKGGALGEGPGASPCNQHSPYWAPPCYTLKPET

B1: DC00046 (other)
chain 1: QVQLVESGGGLVQPGGSLRLSCATSGFTFRNNFMSWVRQAPGKGLEWVSTISYGGESTTYAESVKGRFTISRDNAKNTLYLQMNNLKPEDTAVYYCAKATSYDSIRSGSRGQGTQVTVSSGGGGSGGGGSGGGGSQVQLVESGGGLVQPGGSLRLSCATSGFTFRNNFMSWVRQAPGKGLEWVSTISYGGESTTYAESVKGRFTISRDNAKNTLYLQMNNLKPEDTAVYYCAKATSYDSIRSGSRGQGTQVTVSSDKTHTCPPCPAPEAAGGPSVFLFPPKPKDTLMISRTPEVTCVVVDVSHEDPEVKFNWYVDGVEVHNAKTKPREEQYNSTYRVVSVLTVLHQDWLNGKEYKCKVSNKALGAPIEKTISKAKGQPREPQVYTLPPSRDELTKNQVSLTCLVKGFYPSDIAVEWESNGQPENNYKTTPPVLDSDGSFLLYSKLTVDKSRWQQGNVFSCSVMHEALHNHYTQKSLSLSPGK
chain 2: EVQLVESGGGLVQTGGSLRLSCAASGGTFSRDAMAWFRQVPGKEREFVALISWSGATTNYADSVKGRFAISRDNGKNTVYLQMNRLKPADTAIYYCAADRRPMGSRSYFEPTEYDDWGQGTQVTVSSGGGGSGGGGSGGGGSQVQLVESGGGLVQPGGSLRLSCATSGFTFRNNFMSWVRQAPGKGLEWVSTISYGGESTTYAESVKGRFTISRDNAKNTLYLQMNNLKPEDTAVYYCAKATSYDSIRSGSRGQGTQVTVSSGGGGSGGGGSGGGGSQVQLVESGGGLVQAGGSLTLSCAAPGRTFGTDVVGWFRQAPGKEREFVASISRSGDGIYYDDSVKGRFTISRNNAWNTVNLQMNSLKVEDTAVYYCAAGDGWSTYDYWGQGTQVTVSSGGGGSGGGGSGGGGSDKTHTCPPCPAPEAAGGPSVFLFPPKPKDTLMISRTPEVTCVVVDVSHEDPEVKFNWYVDGVEVHNAKTKPREEQYNSTYRVVSVLTVLHQDWLNGKEYKCKVSNKALGAPIEKTISKAKGQPREPQVYTLPPSRDELTKNQVSLTCLVKGFYPSDIAVEWESNGQPENNYKTTPPVLDSDGSFFLYSRLTVDKSRWQQGNVFSCSVMHEALHNHYTQKSLSLSPGK
B2: DC00047 (other)
chain 1: B1 chain 1
chain 2: EVQLVESGGGLVQTGGSLRLSCAASGGTFSRDAMAWFRQVPGKEREFVALISWSGATTNYADSVKGRFAISRDNGKNTVYLQMNRLKPADTAIYYCAADRRPMGSRSYFEPTEYDDWGQGTQVTVSSGGGGSGGGGSGGGGSQVQLVESGGGLVQAGGSLTLSCAAPGRTFGTDVVGWFRQAPGKEREFVASISRSGDGIYYDDSVKGRFTISRNNAWNTVNLQMNSLKVEDTAVYYCAAGDGWSTYDYWGQGTQVTVSSGGGGSGGGGSGGGGSDKTHTCPPCPAPEAAGGPSVFLFPPKPKDTLMISRTPEVTCVVVDVSHEDPEVKFNWYVDGVEVHNAKTKPREEQYNSTYRVVSVLTVLHQDWLNGKEYKCKVSNKALGAPIEKTISKAKGQPREPQVYTLPPSRDELTKNQVSLTCLVKGFYPSDIAVEWESNGQPENNYKTTPPVLDSDGSFFLYSRLTVDKSRWQQGNVFSCSVMHEALHNHYTQKSLSLSPGK
B3: DC00042 (other)
chain 1: QVQLVESGGGLVQPGGSLRLSCATSGFTFRNNFMSWVRQAPGKGLEWVSTISYGGESTTYAESVKGRFTISRDNAKNTLYLQMNNLKPEDTAVYYCAKATSYDSIRSGSRGQGTQVTVSSDKTHTCPPCPAPEAAGGPSVFLFPPKPKDTLMISRTPEVTCVVVDVSHEDPEVKFNWYVDGVEVHNAKTKPREEQYNSTYRVVSVLTVLHQDWLNGKEYKCKVSNKALGAPIEKTISKAKGQPREPQVYTLPPSRDELTKNQVSLTCLVKGFYPSDIAVEWESNGQPENNYKTTPPVLDSDGSFLLYSKLTVDKSRWQQGNVFSCSVMHEALHNHYTQKSLSLSPGK
chain 2: QVQLVESGGGLVQAGGSLTLSCAAPGRTFGTDVVGWFRQAPGKEREFVASISRSGDGIYYDDSVKGRFTISRNNAWNTVNLQMNSLKVEDTAVYYCAAGDGWSTYDYWGQGTQVTVSSGGGGSGGGGSGGGGSEVQLVESGGGLVQTGGSLRLSCAASGGTFSRDAMAWFRQVPGKEREFVALISWSGATTNYADSVKGRFAISRDNGKNTVYLQMNRLKPADTAIYYCAADRRPMGSRSYFEPTEYDDWGQGTQVTVSSGGGGSGGGGSGGGGSDKTHTCPPCPAPEAAGGPSVFLFPPKPKDTLMISRTPEVTCVVVDVSHEDPEVKFNWYVDGVEVHNAKTKPREEQYNSTYRVVSVLTVLHQDWLNGKEYKCKVSNKALGAPIEKTISKAKGQPREPQVYTLPPSRDELTKNQVSLTCLVKGFYPSDIAVEWESNGQPENNYKTTPPVLDSDGSFFLYSRLTVDKSRWQQGNVFSCSVMHEALHNHYTQKSLSLSPGK
B4: DC00045 (other)
chain 1: B3 chain 1
chain 2: QVQLVESGGGLVQAGGSLTLSCAAPGRTFGTDVVGWFRQAPGKEREFVASISRSGDGIYYDDSVKGRFTISRNNAWNTVNLQMNSLKVEDTAVYYCAAGDGWSTYDYWGQGTQVTVSSGGGGSGGGGSGGGGSQVQLVESGGGLVQPGGSLRLSCATSGFTFRNNFMSWVRQAPGKGLEWVSTISYGGESTTYAESVKGRFTISRDNAKNTLYLQMNNLKPEDTAVYYCAKATSYDSIRSGSRGQGTQVTVSSGGGGSGGGGSGGGGSEVQLVESGGGLVQTGGSLRLSCAASGGTFSRDAMAWFRQVPGKEREFVALISWSGATTNYADSVKGRFAISRDNGKNTVYLQMNRLKPADTAIYYCAADRRPMGSRSYFEPTEYDDWGQGTQVTVSSGGGGSGGGGSGGGGSDKTHTCPPCPAPEAAGGPSVFLFPPKPKDTLMISRTPEVTCVVVDVSHEDPEVKFNWYVDGVEVHNAKTKPREEQYNSTYRVVSVLTVLHQDWLNGKEYKCKVSNKALGAPIEKTISKAKGQPREPQVYTLPPSRDELTKNQVSLTCLVKGFYPSDIAVEWESNGQPENNYKTTPPVLDSDGSFFLYSRLTVDKSRWQQGNVFSCSVMHEALHNHYTQKSLSLSPGK
B5: DC00044 (other)
chain 1: B3 chain 1
chain 2: QVQLVESGGGLVQAGGSLTLSCAAPGRTFGTDVVGWFRQAPGKEREFVASISRSGDGIYYDDSVKGRFTISRNNAWNTVNLQMNSLKVEDTAVYYCAAGDGWSTYDYWGQGTQVTVSSGGGGSGGGGSGGGGSEVQLVESGGGLVQTGGSLRLSCAASGGTFSRDAMAWFRQVPGKEREFVALISWSGATTNYADSVKGRFAISRDNGKNTVYLQMNRLKPADTAIYYCAADRRPMGSRSYFEPTEYDDWGQGTQVTVSSGGGGSGGGGSGGGGSQVQLVESGGGLVQPGGSLRLSCATSGFTFRNNFMSWVRQAPGKGLEWVSTISYGGESTTYAESVKGRFTISRDNAKNTLYLQMNNLKPEDTAVYYCAKATSYDSIRSGSRGQGTQVTVSSDKTHTCPPCPAPEAAGGPSVFLFPPKPKDTLMISRTPEVTCVVVDVSHEDPEVKFNWYVDGVEVHNAKTKPREEQYNSTYRVVSVLTVLHQDWLNGKEYKCKVSNKALGAPIEKTISKAKGQPREPQVYTLPPSRDELTKNQVSLTCLVKGFYPSDIAVEWESNGQPENNYKTTPPVLDSDGSFFLYSRLTVDKSRWQQGNVFSCSVMHEALHNHYTQKSLSLSPGK
B6: DC00043 (other)
chain 1: B3 chain 1
chain 2: QVQLVESGGGLVQPGGSLRLSCATSGFTFRNNFMSWVRQAPGKGLEWVSTISYGGESTTYAESVKGRFTISRDNAKNTLYLQMNNLKPEDTAVYYCAKATSYDSIRSGSRGQGTQVTVSSGGGGSGGGGSGGGGSEVQLVESGGGLVQTGGSLRLSCAASGGTFSRDAMAWFRQVPGKEREFVALISWSGATTNYADSVKGRFAISRDNGKNTVYLQMNRLKPADTAIYYCAADRRPMGSRSYFEPTEYDDWGQGTQVTVSSGGGGSGGGGSGGGGSQVQLVESGGGLVQAGGSLTLSCAAPGRTFGTDVVGWFRQAPGKEREFVASISRSGDGIYYDDSVKGRFTISRNNAWNTVNLQMNSLKVEDTAVYYCAAGDGWSTYDYWGQGTQVTVSSGGGGSGGGGSGGGGSDKTHTCPPCPAPEAAGGPSVFLFPPKPKDTLMISRTPEVTCVVVDVSHEDPEVKFNWYVDGVEVHNAKTKPREEQYNSTYRVVSVLTVLHQDWLNGKEYKCKVSNKALGAPIEKTISKAKGQPREPQVYTLPPSRDELTKNQVSLTCLVKGFYPSDIAVEWESNGQPENNYKTTPPVLDSDGSFFLYSRLTVDKSRWQQGNVFSCSVMHEALHNHYTQKSLSLSPGK

biological target: T1, human IL-2 receptor (IL-2Rα/IL-2Rβ/γc); test: cell-based or functional assay

Row | Fold Max signal (% pSTAT5+) Treg/NK [fold] | Max signal (% pSTAT5+), NK [% pSTAT5+] | Max signal (% pSTAT5+), Treg [% pSTAT5+] | EC50 (nM) pSTAT5, NK, human PBMCs [nM] | EC50 (nM) pSTAT5, Treg, human PBMCs [pM] | fold EC50 NK/Treg [fold] | Binder
1 | 4 | 6 | 25 |  |  |  | B1
2 | 1 | 0 | 0 |  |  |  | B2
3 | 5 | 21 | 94 | 0.763 | 0.106 | 7210 | B3
4 | 12 | 7 | 88 | 0.0573 | 0.151 | 379 | B4
5 | 5 | 20 | 96 | 0.442 | < 0.1 | > 4420 | B5
6 | 16 | 3 | 54 | 0.0425 | 0.529 | 80 | B6
